Assays:
IL-15R β protein = IL-15R β protein (UniProt P14784); assay: BLI (Octet-RED), IL-15Rβ immobilized on Ni-NTA biosensors, serial dilutions of the complex as analyte, global 1:1 fit
FL115-WT = FL115-WT (Homo sapiens (Human), UniProt P40933 49-162); assay: as above
Experimental: The binding activity of an agonistic interleukin 15 complex to the receptor IL-15R β was assayed using an Octet-RED (Pall ForteBio) Bio-Layer Interferometry (BLI) instrument. […] 6.2 (2022): e2100966, PMID: 35174992). The baseline was established in kinetics buffer and loaded biosensors were dipped into wells containing serial dilutions of an agonistic interleukin 15 complex for 300 s. FL115 (also named FL115-V2), an agonistic interleukin 15 complex according to an embodiment of the application, contains a monomeric IL-15 receptor αSu/Fc fusion protein having the amino acid sequence of SEQ ID NO: 2 and a mutant IL15 having the amino acid sequence of SEQ ID NO: 3. FL115-WT, another agonistic interleukin 15 complex according to an embodiment of the application, contains a monomeric IL-15 receptor αSu/Fc fusion protein having the amino acid sequence of SEQ ID NO: 2 and the wild-type IL15 having the amino acid sequence of SEQ ID NO: 4. The agonistic interleukin 15 complex was bound to the immobilized IL-15R β protein. The binding complexes of the IL-15R β protein-agonistic IL15 complex were then allowed to dissociate in kinetics buffer. Global data fitting to a 1:1 binding model was used to estimate the affinity using Data Analysis software version 8.1.

FL115-WT, sequence (chain, as listed by the source limits assumed, chain 1 of 2): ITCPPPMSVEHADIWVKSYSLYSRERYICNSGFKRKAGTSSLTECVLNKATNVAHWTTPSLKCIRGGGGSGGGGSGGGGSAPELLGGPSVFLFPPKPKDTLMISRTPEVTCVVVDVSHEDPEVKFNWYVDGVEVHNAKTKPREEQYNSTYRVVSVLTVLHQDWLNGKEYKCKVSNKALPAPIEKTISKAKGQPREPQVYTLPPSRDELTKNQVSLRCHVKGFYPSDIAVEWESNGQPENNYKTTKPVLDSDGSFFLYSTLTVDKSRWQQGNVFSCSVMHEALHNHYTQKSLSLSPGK
FL115-WT, sequence (P40933 49-162 limits assumed, chain 2 of 2): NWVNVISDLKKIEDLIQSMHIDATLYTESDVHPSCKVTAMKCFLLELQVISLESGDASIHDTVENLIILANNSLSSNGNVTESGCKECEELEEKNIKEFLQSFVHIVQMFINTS

Molecule	Kd (IL-15R β protein) [nM]	koff (IL-15R β protein) [s⁻¹]	kon (IL-15R β protein) [M⁻¹ s⁻¹]	Kd (FL115-WT) [nM]	koff (FL115-WT) [s⁻¹]	kon (FL115-WT) [M⁻¹ s⁻¹]
ALT 803 (Fc fusion)	3.9	0.000235	60400	–	–	–
IL-15R β protein (receptor, UniProt P14784 27-239, looked up, also called IL-15 receptor β; IL-2/IL-15 receptor beta) AVNGTSQFTCFYNSRANISCVWSQDGALQDTSCQVHAWPDRRRWNQTCELLPVSQASWACNLILGAPDSQKLTTVDIVTLRVLCREGVRWRVMAIQDFKPFENLRLMAPISLQVVHVETHRCNISWEISQASHYFERHLEFEARTLSPGHTWEEAPLLTLKQKQEWICLETLTPDTQYEFQVRVKPLQGEFTTWSPWSQPLAFRTKPAALGKD	–	–	–	62.7	0.00108	17200

From patent US20260242444A1 (SUZHOU FORLONG BIOTECHNOLOGY, published 2026)
